Molecular target: T1, CD33 (UniProt P20138 18-364, limits assumed)
T1 construct: whole, on cells; Endogenous antigen on Molm13 cells; also called cell surface antigen CD33; CD33-expressing Molm13 cells
Test: FACS on CD33-expressing Molm13 cells, Dig-Cy5 as payload
Procedure: Simultaneous antigen binding of the antibodies generated in example 1 was analyzed by FACS analysis on LeY-expressing MCF7 cells, CD33-expressing Molm13 cells and GPC3-expressing HepG2 cells using Dig-Cy5 as payload to address hapten binding.

T1 sequence (P20138 18-364 limits assumed): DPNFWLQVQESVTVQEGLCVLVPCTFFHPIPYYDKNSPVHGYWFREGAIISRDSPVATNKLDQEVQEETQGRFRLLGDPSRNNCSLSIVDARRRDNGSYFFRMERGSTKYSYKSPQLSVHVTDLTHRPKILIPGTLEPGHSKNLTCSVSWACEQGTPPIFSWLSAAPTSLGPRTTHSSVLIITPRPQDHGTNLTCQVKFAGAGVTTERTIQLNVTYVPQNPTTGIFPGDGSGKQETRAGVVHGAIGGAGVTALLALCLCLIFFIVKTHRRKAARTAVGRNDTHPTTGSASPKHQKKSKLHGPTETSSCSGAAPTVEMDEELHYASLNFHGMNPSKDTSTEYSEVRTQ

B1: BsAb CD33-Dig(SS)-CD33 (bispecific antibody)
light: DIQLTQSPSTLSASVGDRVTITCRASESLDNYGIRFLTWFQQKPGKAPKLLMYAASNQGSGVPSRFSGSGSGTEFTLTISSLQPDDFATYYCQQTKEVPWSFGQGTKVEVKRTVAAPSVFIFPPSDEQLKSGTASVVCLLNNFYPREAKVQWKVDNALQSGNSQESVTEQDSKDSTYSLSSTLTLSKADYEKHKVYACEVTHQGLSSPVTKSFNRGEC
heavy 1: EVQLVQSGAEVKKPGSSVKVSCKASGYTITDSNIHWVRQAPGQSLEWIGYIYPYNGGTDYNQKFKNRATLTVDNPTNTAYMELSSLRSEDTAFYYCVNGNPWLAYWGQGTLVTVSSASTKGPSVFPLAPSSKSTSGGTAALGCLVKDYFPEPVTVSWNSGALTSGVHTFPAVLQSSGLYSLSSVVTVPSSSLGTQTYICNVNHKPSNTKVDKKVEPKSCGGGGSGGGGSGGGGSGGGGSQVQLVESGGGLVKPGGSLRLSCAASGFTFSDYAMSWIRQAPGKCLEWVSSINIGATYIYYADSVKGRFTISRDNAKNSLYLQMNSLRAEDTAVYYCARPGSPYEYDKAYYSMAYWGQGTTVTVSSGQPREPQVYTLPPCRDELTKNQVSLWCLVKGFYPSDIAVEWESNGQPENNYKTTPPVLDSDGSFFLYSKLTVDKSRWQQGNVFSCSVMHEALHNHYTQKSLSLSPGK
heavy 2: EVQLVQSGAEVKKPGSSVKVSCKASGYTITDSNIHWVRQAPGQSLEWIGYIYPYNGGTDYNQKFKNRATLTVDNPTNTAYMELSSLRSEDTAFYYCVNGNPWLAYWGQGTLVTVSSASTKGPSVFPLAPSSKSTSGGTAALGCLVKDYFPEPVTVSWNSGALTSGVHTFPAVLQSSGLYSLSSVVTVPSSSLGTQTYICNVNHKPSNTKVDKKVEPKSCGGGGSGGGGSGGGGSGGGGSDIQMTQSPSSLSASVGDRVTITCRASQDIKNYLNWYQQKPGKAPKLLIYYSSTLLSGVPSRFSGSGSGTDFTLTISSLQPEDFATYYCQQSITLPPTFGCGTKVEIKGQPREPQVCTLPPSRDELTKNQVSLSCAVKGFYPSDIAVEWESNGQPENNYKTTPPVLDSDGSFFLVSKLTVDKSRWQQGNVFSCSVMHEALHNHYTQKSLSLSPGK
notes: Trivalent, bispecific; no CH2; (Gly4Ser)4 connectors; In the FACS assay it carried Dig-Cy5 as payload
B1: binds.

B2: BsAb Dig-CD33-Dig (bispecific antibody)
light: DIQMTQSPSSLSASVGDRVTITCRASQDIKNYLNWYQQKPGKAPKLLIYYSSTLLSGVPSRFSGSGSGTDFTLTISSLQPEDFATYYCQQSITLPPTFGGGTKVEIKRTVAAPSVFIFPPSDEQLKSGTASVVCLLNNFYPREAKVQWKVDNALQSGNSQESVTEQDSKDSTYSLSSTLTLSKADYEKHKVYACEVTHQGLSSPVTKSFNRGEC
heavy 1: QVQLVESGGGLVKPGGSLRLSCAASGFTFSDYAMSWIRQAPGKGLEWVSSINIGATYIYYADSVKGRFTISRDNAKNSLYLQMNSLRAEDTAVYYCARPGSPYEYDKAYYSMAYWGQGTTVTVSSASTKGPSVFPLAPSSKSTSGGTAALGCLVKDYFPEPVTVSWNSGALTSGVHTFPAVLQSSGLYSLSSVVTVPSSSLGTQTYICNVNHKPSNTKVDKKVEPKSCGGGGSGGGGSGGGGSGGGGSEVQLVQSGAEVKKPGSSVKVSCKASGYTITDSNIHWVRQAPGQSLEWIGYIYPYNGGTDYNQKFKNRATLTVDNPTNTAYMELSSLRSEDTAFYYCVNGNPWLAYWGQGTLVTVSSGQPREPQVYTLPPCRDELTKNQVSLWCLVKGFYPSDIAVEWESNGQPENNYKTTPPVLDSDGSFFLYSKLTVDKSRWQQGNVFSCSVMHEALHNHYTQKSLSLSPGK
heavy 2: QVQLVESGGGLVKPGGSLRLSCAASGFTFSDYAMSWIRQAPGKGLEWVSSINIGATYIYYADSVKGRFTISRDNAKNSLYLQMNSLRAEDTAVYYCARPGSPYEYDKAYYSMAYWGQGTTVTVSSASTKGPSVFPLAPSSKSTSGGTAALGCLVKDYFPEPVTVSWNSGALTSGVHTFPAVLQSSGLYSLSSVVTVPSSSLGTQTYICNVNHKPSNTKVDKKVEPKSCGGGGSGGGGSGGGGSGGGGSDIQLTQSPSTLSASVGDRVTITCRASESLDNYGIRFLTWFQQKPGKAPKLLMYAASNQGSGVPSRFSGSGSGTEFTLTISSLQPDDFATYYCQQTKEVPWSFGQGTKVEVKGQPREPQVCTLPPSRDELTKNQVSLSCAVKGFYPSDIAVEWESNGQPENNYKTTPPVLDSDGSFFLVSKLTVDKSRWQQGNVFSCSVMHEALHNHYTQKSLSLSPGK
notes: as for B1
B2: binds.

Reference: patent publication US20170369595A1 (Hoffmann-La Roche, published 2017)
